We go through two molecules from PMC4945038, “Rad51 Nucleoprotein Filament Disassembly Captured Using Fluorescent Plasmodium falciparum SSB as a Reporter for Single-Stranded DNA”.

In data set [1] the target is T1, Pf-SSB-MDCC (Plasmodium falciparum, UniProt Q8I415 77-284). The data set is described as follows: fluorescence titration; 100 mM NaCl; stoichiometric, 1 tetramer per (dT)70; ~4-fold fluorescence increase; Titration and stopped-flow: 20 mM Tris-Cl pH 8, 0.1 mM EDTA, 100 mM NaCl, 1 mM TCEP, 25 C; ITC same with 200 mM NaCl; Rad51 filaments: 25 mM Tris-Cl pH 7.7, 1 mM TCEP, 5% glycerol, 10 mM MgCl2, 50 mM NaCl, 3 mM ATP, ATP regeneration. The note with it: protein: recombinant; tags: MDCC on Cys93; chain copies: 4; single strand.

In data set [2] the target is T1, Pf-SSB-MDCC. The data set is described as follows: ITC; 200 mM NaCl; stoichiometric, 2 (dT)35 per tetramer; dHobs -71.8±0.2 kcal/mol; Titration and stopped-flow: 20 mM Tris-Cl pH 8, 0.1 mM EDTA, 100 mM NaCl, 1 mM TCEP, 25 C; ITC same with 200 mM NaCl; Rad51 filaments: 25 mM Tris-Cl pH 7.7, 1 mM TCEP, 5% glycerol, 10 mM MgCl2, 50 mM NaCl, 3 mM ATP, ATP regeneration. The note with it: protein: recombinant; tags: MDCC on Cys93; chain copies: 4; single strand; 2 copies per tetramer. (In general: Isothermal titration calorimetry measures the heat released or taken up as one component is titrated into another.)

Another data set addresses Pf-SSB (Plasmodium falciparum, UniProt Q8I415 77-284). Description: ITC; 200 mM NaCl; stoichiometric, 2 (dT)35 per tetramer; dHobs -73.1±0.2 kcal/mol; Titration and stopped-flow: 20 mM Tris-Cl pH 8, 0.1 mM EDTA, 100 mM NaCl, 1 mM TCEP, 25 C; ITC same with 200 mM NaCl; Rad51 filaments: 25 mM Tris-Cl pH 7.7, 1 mM TCEP, 5% glycerol, 10 mM MgCl2, 50 mM NaCl, 3 mM ATP, ATP regeneration. Particulars: protein: recombinant; chain copies: 4; single strand; 2 copies per tetramer.

B1: (dT)70 (ssDNA)
DNA: TTTTTTTTTTTTTTTTTTTTTTTTTTTTTTTTTTTTTTTTTTTTTTTTTTTTTTTTTTTTTTTTTTTTTT
Take B1: in the data set with Pf-SSB-MDCC [1], the binding result is reported as “binds”.

With TTTTTTTTTTTTTTTTTTTTTTTTTTTTTTTTTTT (ssDNA) [(dT)35], the binding result with Pf-SSB-MDCC [2] and with Pf-SSB was “binds” in each case.
